B1: CD3B2026 (scFv)
scFv: QVQLVQSGAEVKKPGSSVKVSCKASGYTFTRSTMHWVKQAPGQGLEWIGYINPSSAYTNYNQKFQGRVTLTADKSTSTAYMELSSLRSEDTAVYYCASPQVHYDYNGFPYWGQGTLVTVSSGGSEGKSSGSGSESKSTGGSEIVLTQSPATLSASPGERVTLSCSASSSVSYMNWYQQKPGTAPRRWIYDSSKLASGVPARFSGSGSGRDYTLTISSLEPEDFAVYYCQQWSRNPPTFGGGTKVEIK
B2: CD3B2047 (scFv)
scFv: QVQLVQSGAEVKKPGSSVKVSCKASGYTFTRSTMHWVKQAPGQGLEWIGYINPSSAYTNYNQKFQGRVTLTADKSTSTAYMELSSLRSEDTAVYYCASPQVHYDYNGFPYWGQGTLVTVSSGGSEGKSSGSGSESKSTGGSEIVLTQSPATLSASPGERVTLSCSASSSVSYMNWYQQKPGQSPRRLIYDSSKLASGVPARFSGSGSGRDYTLTISSLEPEDFAVYYCQQWSRNPPTFGGGTKVEIK
B3: CD3B2049 (scFv)
scFv: QVQLVQSGAEVKKPGSSVKVSCKASGYTFTRSTMHWVKQAPGQGLEWMGYINPSSAYTNYNQKFQGRVTLTADKSTSTAYMELSSLRSEDTAVYYCASPQVHYDYNGFPYWGQGTLVTVSSGGSEGKSSGSGSESKSTGGSEIVLTQSPATLSASPGERVTLSCSASSSVSYMNWYQQKPGTSPRRWIYDSSKLASGVPARFSGSGSGRDYTLTISSLEPEDFAVYYCQQWSRNPPTFGGGTKVEIK
B4: CD3B2036 (scFv)
scFv: QVQLVQSGAEVKKPGSSVKVSCKASGYTFTRSTMHWVKQAPGQGLEWMGYINPSSAYTNYAQKFQGRVTLTADKSTSTAYMELSSLRSEDTAVYYCASPQVHYDYNGFPYWGQGTLVTVSSGGSEGKSSGSGSESKSTGGSEIVLTQSPATLSASPGERVTLSCSASSSVSYMNWYQQKPGTAPRRWIYDSSKLASGVPARFSGSGSGRDYTLTISSLEPEDFAVYYCQQWSRNPPTFGGGTKVEIK
B5: CD3B2040 (scFv)
scFv: QVQLVQSGAEVKKPGSSVKVSCKASGYTFTRSTMHWVKQAPGQGLEWMGYINPSSAYTNYAQKFQGRVTLTADKSTSTAYMELSSLRSEDTAVYYCASPQVHYDYNGFPYWGQGTLVTVSSGGSEGKSSGSGSESKSTGGSEIVLTQSPATLSASPGERVTLSCSASSSVSYMNWYQQKPGQAPRRWIYDSSKLASGVPARFSGSGSGRDYTLTISSLEPEDFAVYYCQQWSRNPPTFGGGTKVEIK
B6: CD3B2028 (scFv)
scFv: QVQLVQSGAEVKKPGSSVKVSCKASGYTFTRSTMHWVKQAPGQGLEWIGYINPSSAYTNYNQKFQGRVTLTADKSTSTAYMELSSLRSEDTAVYYCASPQVHYDYNGFPYWGQGTLVTVSSGGSEGKSSGSGSESKSTGGSEIVLTQSPATLSASPGERVTLSCSASSSVSYMNWYQQKPGTAPRRLIYDSSKLASGVPARFSGSGSGRDYTLTISSLEPEDFAVYYCQQWSRNPPTFGGGTKVEIK
B7: CD3B2048 (scFv)
scFv: QVQLVQSGAEVKKPGSSVKVSCKASGYTFTRSTMHWVKQAPGQGLEWIGYINPSSAYTNYNQKFQGRVTLTADKSTSTAYMELSSLRSEDTAVYYCASPQVHYDYNGFPYWGQGTLVTVSSGGSEGKSSGSGSESKSTGGSEIVLTQSPATLSASPGERVTLSCSASSSVSYMNWYQQKPGQAPRRLIYDSSKLASGVPARFSGSGSGRDYTLTISSLEPEDFAVYYCQQWSRNPPTFGGGTKVEIK
B8: CD3B2027 (scFv)
scFv: QVQLVQSGAEVKKPGSSVKVSCKASGYTFTRSTMHWVKQAPGQGLEWIGYINPSSAYTNYNQKFQGRVTLTADKSTSTAYMELSSLRSEDTAVYYCASPQVHYDYNGFPYWGQGTLVTVSSGGSEGKSSGSGSESKSTGGSEIVLTQSPATLSASPGERVTLSCSASSSVSYMNWYQQKPGTSPRRLIYDSSKLASGVPARFSGSGSGRDYTLTISSLEPEDFAVYYCQQWSRNPPTFGGGTKVEIK
B9: CD3B2046 (scFv)
scFv: QVQLVQSGAEVKKPGSSVKVSCKASGYTFTRSTMHWVKQAPGQGLEWIGYINPSSAYTNYNQKFQGRVTLTADKSTSTAYMELSSLRSEDTAVYYCASPQVHYDYNGFPYWGQGTLVTVSSGGSEGKSSGSGSESKSTGGSEIVLTQSPATLSASPGERVTLSCSASSSVSYMNWYQQKPGTSPRRWIYDSSKLASGVPARFSGSGSGRDYTLTISSLEPEDFAVYYCQQWSRNPPTFGGGTKVEIK
B10: CD3B2052 (scFv)
scFv: QVQLVQSGAEVKKPGSSVKVSCKASGYTFTRSTMHWVKQAPGQGLEWMGYINPSSAYTNYAQKFQGRVTLTADKSTSTAYMELSSLRSEDTAVYYCASPQVHYDYNGFPYWGQGTLVTVSSGGSEGKSSGSGSESKSTGGSEIVLTQSPATLSASPGERVTLSCSASSSVSYMNWYQQKPGTSPRRWIYDSSKLASGVPARFSGSGSGRDYTLTISSLEPEDFAVYYCQQWSRNPPTFGGGTKVEIK
B11: CD3B2032 (scFv)
scFv: QVQLVQSGAEVKKPGSSVKVSCKASGYTFTRSTMHWVKQAPGQGLEWMGYINPSSAYTNYNQKFQGRVTLTADKSTSTAYMELSSLRSEDTAVYYCASPQVHYDYNGFPYWGQGTLVTVSSGGSEGKSSGSGSESKSTGGSEIVLTQSPATLSASPGERVTLSCSASSSVSYMNWYQQKPGTSPRRLIYDSSKLASGVPARFSGSGSGRDYTLTISSLEPEDFAVYYCQQWSRNPPTFGGGTKVEIK
B12: CD3B2050 (scFv)
scFv: QVQLVQSGAEVKKPGSSVKVSCKASGYTFTRSTMHWVKQAPGQGLEWMGYINPSSAYTNYNQKFQGRVTLTADKSTSTAYMELSSLRSEDTAVYYCASPQVHYDYNGFPYWGQGTLVTVSSGGSEGKSSGSGSESKSTGGSEIVLTQSPATLSASPGERVTLSCSASSSVSYMNWYQQKPGQSPRRLIYDSSKLASGVPARFSGSGSGRDYTLTISSLEPEDFAVYYCQQWSRNPPTFGGGTKVEIK

For the experiment, the target named is T1, TRCW5 antigen (CD3δε-Fc-Avi) (biotinylated (site not stated)).
T1 construct: also called recombinant CD3
T1 sequence (chain, as listed by the source mutant limits assumed): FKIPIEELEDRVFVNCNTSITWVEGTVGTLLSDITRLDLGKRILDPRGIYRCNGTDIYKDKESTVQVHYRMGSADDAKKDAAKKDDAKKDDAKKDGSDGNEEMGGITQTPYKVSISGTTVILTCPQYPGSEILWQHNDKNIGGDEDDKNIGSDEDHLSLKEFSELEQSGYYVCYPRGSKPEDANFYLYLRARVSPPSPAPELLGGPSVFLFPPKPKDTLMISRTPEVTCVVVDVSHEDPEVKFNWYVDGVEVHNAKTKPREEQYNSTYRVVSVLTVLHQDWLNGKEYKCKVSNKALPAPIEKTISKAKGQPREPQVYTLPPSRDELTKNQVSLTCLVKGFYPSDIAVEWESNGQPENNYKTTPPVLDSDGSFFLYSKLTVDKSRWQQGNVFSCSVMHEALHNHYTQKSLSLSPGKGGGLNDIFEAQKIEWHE
Briefly: ELISA after heat. Background: ELISA stands for enzyme-linked immunosorbent assay.
As for B1, the “% Retained 55° C.” value came out at 106%, the “% Retained 60° C.” value was found to be 98% and the “% Retained 65° C.” value was 29%.

Consider B2, for which the “% Retained 55° C.” value was found to be 106%, the “% Retained 60° C.” value came to 98% and the “% Retained 65° C.” value came out at 15%.

With B3, the “% Retained 55° C.” value stood at 108%, the “% Retained 60° C.” value is 105% and the “% Retained 65° C.” value turned out to be 29%.

Regarding B4, the “% Retained 55° C.” value came out at 108%, the “% Retained 60° C.” value is 105% and the “% Retained 65° C.” value was determined as 35%.

Turning to B5, the “% Retained 55° C.” value came to 107%, the “% Retained 60° C.” value is 106% and the “% Retained 65° C.” value turned out to be 52%.

B6: the “% Retained 55° C.” value was 104%, the “% Retained 60° C.” value came out at 92% and the “% Retained 65° C.” value was determined as 15%.

Regarding B7, the “% Retained 55° C.” value was found to be 105%, the “% Retained 60° C.” value came to 95% and the “% Retained 65° C.” value came to 22%.

For B8, the “% Retained 55° C.” value came to 104%, the “% Retained 60° C.” value is 93% and the “% Retained 65° C.” value stood at 9%.

For the molecule B9, the “% Retained 55° C.” value turned out to be 111%, the “% Retained 60° C.” value came to 113% and the “% Retained 65° C.” value worked out at 30%.

Consider B10, for which the “% Retained 55° C.” value was found to be 112%, the “% Retained 60° C.” value turned out to be 111% and the “% Retained 65° C.” value was 25%.

Take B11: the “% Retained 55° C.” value was 106%, the “% Retained 60° C.” value is 88% and the “% Retained 65° C.” value is 20%.

B12: the “% Retained 55° C.” value is 108%, the “% Retained 60° C.” value came out at 102% and the “% Retained 65° C.” value came to 41%.

Values taken from patent US20250145711A1 (Janssen / Centocor, published 2025).
